Molecular target: Aβ(M1-42) (UniProt P05067)
Assay: fibrils trapped on a 0.2 μm filter, tryptic digest and MALDI-TOF MS; 1:1 mixture of ^15N-Aβ42 and ^14N-Aβ40 monomers, 3 μM total, 5 μM ThT, 37 °C; samples taken at the first and second ThT plateau, fibrils washed with Milli-Q water

Sequence of Aβ(M1-42) (P05067 671-713): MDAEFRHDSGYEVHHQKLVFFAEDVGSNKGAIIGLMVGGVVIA

percent of Aβ40 contained in the fibrils at the first plateau: < 13%
Substance: Aβ(M1-40) (from UniProt P05067 672-711) (peptide)
